Legend:
HeLa Kyoto [1] = assay: thermal stability score vs G1/S (z-score of summed log2 fold changes over temperatures); higher = more thermally stable than in G1/S
HeLa Kyoto [2] = assay: solubility in G1/S (NP-40 vs SDS abundance) (log2 ratio); higher = more soluble; conditions: cell cycle stage: G1/S
HeLa Kyoto [3] = assay: melting temperature (median over replicates), in situ; higher = more thermally stable
HeLa Kyoto [4] = assay: solubility change mitosis vs G1/S (difference of NP-40 vs SDS log2 ratios) (log2 ratio difference); higher = more soluble in mitosis
[5] = cell cycle stage: early G1 (4.5 h after nocodazole release)
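Throughout, for melting temperature (median over replicates), in situ: HeLa Kyoto cells synchronized by double thymidine or nocodazole block, proteins quantified by TMT10plex mass spectrometry, three independent biological replicates.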
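Throughout, for solubility change mitosis vs G1/S (difference of NP-40 vs SDS log2 ratios): synchronized HeLa Kyoto cells (double thymidine block for G1/S, nocodazole release for mitosis), protein amounts in NP-40 versus SDS lysates quantified by mass spectrometry, three biological replicates.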
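Throughout, for solubility in G1/S (NP-40 vs SDS abundance): HeLa Kyoto cells arrested at G1/S by double thymidine block, proteins quantified by TMT10plex mass spectrometry in mild NP-40 versus SDS extracts, three biological replicates.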
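Throughout, for thermal stability score vs G1/S (z-score of summed log2 fold changes over temperatures): synchronized HeLa Kyoto cells, proteins quantified by TMT10plex mass spectrometry, three biological replicates, mitosis taken 0.5 h after nocodazole release, G1/S directly after double thymidine block.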

Row | Substance | thermal stability score (HeLa Kyoto [1]; [5]) | thermal stability score (HeLa Kyoto [1]; cell cycle stage: mitosis) | solubility in G1/S (log2) (HeLa Kyoto [2]) | melting temperature (HeLa Kyoto [3]; cell cycle stage: G1/S) | melting temperature (HeLa Kyoto [3]; cell cycle stage: mitosis) | solubility change mitosis (log2) (HeLa Kyoto [4])
1 | MPVAGSELPRRPLPPAAQERDAEPRPPHGELQYLGQIQHILRCGVRKDDRTGTGTLSVFGMQARYSLRDEFPLLTTKRVFWKGVLEELLWFIKGSTNAKELSSKGVKIWDANGSRDFLDSLGFSTREEGDLGPVYGFQWRHFGAEYRDMESDYSGQGVDQLQRVIDTIKTNPDDRRIIMCAWNPRDLPLMALPPCHALCQFYVVNSELSCQLYQRSGDMGLGVPFNIASYALLTYMIAHITGLKPGDFIHTLGDAHIYLNHIEPLKIQLQREPRPFPKLRILRKVEKIDDFKAEDFQIEGYNPHPTIKMEMAV [TYMS] | -0.449 | 1.58 | -0.0779 | 49.2 °C | 49 °C | -0.0717
2 | MAAGGGGSCDPLAPAGVPCAFSPHSQAYFALASTDGHLRVWETANNRLHQEYVPSAHLSGTCTCLAWAPARLQAKESPQRKKRKSEAVGMSNQTDLLALGTAVGSILLYSTVKGELHSKLISGGHDNRVNCIQWHQDSGCLYSCSDDKHIVEWNVQTCKVKCKWKGDNSSVSSLCISPDGKMLLSAGRTIKLWVLETKEVYRHFTGHATPVSSLMFTTIRPPNESQPFDGITGLYFLSGAVHDRLLNVWQVRSENKEKSAVMSFTVTDEPVYIDLTLSENKEEPVKLAVVCRDGQVHLFEHILNGYCKKPLTSNCTIQIATPGKGKKSTPKPIPILAAGFCSDKMSLLLVYGSWFQPTIERVALNSREPHMCLVRDISNCWAPKVETAITKVRTPVMNSEAKVLVPGIPGHHAAIKPAPPQTEQVESKRKSGGNEVSIEERLGAMDIDTHKKGKEDLQTNSFPVLLTQGLESNDFEMLNKVLQTRNVNLIKKTVLRMPLHTIIPLLQELTKRLQGHPNSAVLMVQWLKCVLTVHASYLSTLPDLVPQLGTLYQLMESRVKTFQKLSHLHGKLILLITQVTASEKTKGATSPGQKAKLVYEEESSEEESDDEIADKDSEDNWDEDEEESESEKDEDVEEEDEDAEGKDEENGEDRDTASEKELNGDSDLDPENESEEE [WDR43] | -1.7 | -6.5 | -1.29 | 58.6 °C | 55.7 °C | 0.783
3 | MATEHVNGNGTEEPMDTTSAVIHSENFQTLLDAGLPQKVAEKLDEIYVAGLVAHSDLDERAIEALKEFNEDGALAVLQQFKDSDLSHVQNKSAFLCGVMKTYRQREKQGTKVADSSKGPDEAKIKALLERTGYTLDVTTGQRKYGGPPPDSVYSGQQPSVGTEIFVGKIPRDLFEDELVPLFEKAGPIWDLRLMMDPLTGLNRGYAFVTFCTKEAAQEAVKLYNNHEIRSGKHIGVCISVANNRLFVGSIPKSKTKEQILEEFSKVTEGLTDVILYHQPDDKKKNRGFCFLEYEDHKTAAQARRRLMSGKVKVWGNVGTVEWADPIEDPDPEVMAKVKVLFVRNLANTVTEEILEKAFSQFGKLERVKKLKDYAFIHFDERDGAVKAMEEMNGKDLEGENIEIVFAKPPDQKRKERKAQRQAAKNQMYDDYYYYGPPHMPPPTRGRGRGGRGGYGYPPDYYGYEDYYDYYGYDYHNYRGGYEDPYYGYEDFQVGARGRGGRGARGAAPSRGRGAAPPRGRAGYSQRGGPGSARGVRGARGGAQQQRGRGVRGARGGRGGNVGGKRKADGYNQPDSKRRQTNNQNWGSQPIAQQPLQGGDHSGNYGYKSENQEFYQDTFGQQWK [SYNCRIP] | -1.08 | -0.356 | 0.0281 | 51.3 °C | 50.8 °C | 0.0879
4 | MLSVRVAAAVVRALPRRAGLVSRNALGSSFIAARNFHASNTHLQKTGTAEMSSILEERILGADTSVDLEETGRVLSIGDGIARVHGLRNVQAEEMVEFSSGLKGMSLNLEPDNVGVVVFGNDKLIKEGDIVKRTGAIVDVPVGEELLGRVVDALGNAIDGKGPIGSKTRRRVGLKAPGIIPRISVREPMQTGIKAVDSLVPIGRGQRELIIGDRQTGKTSIAIDTIINQKRFNDGSDEKKKLYCIYVAIGQKRSTVAQLVKRLTDADAMKYTIVVSATASDAAPLQYLAPYSGCSMGEYFRDNGKHALIIYDDLSKQAVAYRQMSLLLRRPPGREAYPGDVFYLHSRLLERAAKMNDAFGGGSLTALPVIETQAGDVSAYIPTNVISITDGQIFLETELFYKGIRPAINVGLSVSRVGSAAQTRAMKQVAGTMKLELAQYREVAAFAQFGSDLDAATQQLLSRGVRLTELLKQGQYSPMAIEEQVAVIYAGVRGYLDKLEPSKITKFENAFLSHVVSQHQALLGTIRADGKISEQSDAKLKEIVTNFLAGFEA [ATP5A1] | -1.58 | -1.35 | 0.231 | 59.9 °C | 58.9 °C | -0.0479
5 | MAASGESGTSGGGGSTEEAFMTFYSEVKQIEKRDSVLTSKNQIERLTRPGSSYFNLNPFEVLQIDPEVTDEEIKKRFRQLSILVHPDKNQDDADRAQKAFEAVDKAYKLLLDQEQKKRALDVIQAGKEYVEHTVKERKKQLKKEGKPTIVEEDDPELFKQAVYKQTMKLFAELEIKRKEREAKEMHERKRQREEEIEAQEKAKREREWQKNFEESRDGRVDSWRNFQANTKGKKEKKNRTFLRPPKVKMEQRE [DNAJC8] | 1.39 | 0.712 | 0.748 | 50.1 °C | 51.5 °C | 0.145
6 | ASL | 3.02 | 4.07 | -0.0391 | 51.4 °C | 52.1 °C | 0.00521
7 | MFTSTGSSGLYKAPLSKSLLLVPSALSLLLALLLPHCQKLFVYDLHAVKNDFQIWRLICGRIICLDLKDTFCSSLLIYNFRIFERRYGSRKFASFLLGSWVLSALFDFLLIEAMQYFFGITAASNLPSGFLAPVFALFVPFYCSIPRVQVAQILGPLSITNKTLIYILGLQLFTSGSYIWIVAISGLMSGLCYDSKMFQVHQVLCIPSWMAKFFSWTLEPIFSSSEPTSEARIGMGATLDIQRQQRMELLDRQLMFSQFAQGRRQRQQQGGMINWNRLFPPLRQRQNVNYQGGRQSEPAAPPLEVSEEQVARLMEMGFSRGDALEALRASNNDLNVATNFLLQH [UBAC2] | 0.579 | 1.39 | -0.173 | 50.4 °C | 51.2 °C | -0.209
8 | MAGEGDQQDAAHNMGNHLPLLPAESEEEDEMEVEDQDSKEAKKPNIINFDTSLPTSHTYLGADMEEFHGRTLHDDDSCQVIPVLPQVMMILIPGQTLPLQLFHPQEVSMVRNLIQKDRTFAVLAYSNVQEREAQFGTTAEIYAYREEQDFGIEIVKVKAIGRQRFKVLELRTQSDGIQQAKVQILPECVLPSTMSAVQLESLNKCQIFPSKPVSREDQCSYKWWQKYQKRKFHCANLTSWPRWLYSLYDAETLMDRIKKQLREWDENLKDDSLPSNPIDFSYRVAACLPIDDVLRIQLLKIGSAIQRLRCELDIMNKCTSLCCKQCQETEITTKNEIFSLSLCGPMAAYVNPHGYVHETLTVYKACNLNLIGRPSTEHSWFPGYAWTVAQCKICASHIGWKFTATKKDMSPQKFWGLTRSALLPTIPDTEDEISPDKVILCL [CRBN] | -0.823 | -2.4 | -0.152 | 53.7 °C | 53.4 °C | -0.303
9 | MAYNDTDRNQTEKLLKRVRELEQEVQRLKKEQAKNKEDSNIRENSAGAGKTKRAFDFSAHGRRHVALRIAYMGWGYQGFASQENTNNTIEEKLFEALTKTRLVESRQTSNYHRCGRTDKGVSAFGQVISLDLRSQFPRGRDSEDFNVKEEANAAAEEIRYTHILNRVLPPDIRILAWAPVEPSFSARFSCLERTYRYFFPRADLDIVTMDYAAQKYVGTHDFRNLCKMDVANGVINFQRTILSAQVQLVGQSPGEGRWQEPFQLCQFEVTGQAFLYHQVRCMMAILFLIGQGMEKPEIIDELLNIEKNPQKPQYSMAVEFPLVLYDCKFENVKWIYDQEAQEFNITHLQQLWANHAVKTHMLYSMLQGLDTVPVPCGIGPKMDGMTEWGNVKPSVIKQTSAFVEGVKMRTYKPLMDRPKCQGLESRIQHFVRRGRIEHPHLFHEEETKAKRDCNDTLEEENTNLETPTKRVCVDTEIKSII [PUS3] | 0.0981 | -0.181 | 0.0227 | 51.6 °C | 52.7 °C | -0.169
